Laboratory results as given in paper PMC4753514.

What was measured:
[1] = target: ProG-TGT (Protein G fragment, amino acids 190-384, conjugated to a double-stranded DNA tension gauge tether with biotin) (UniProt P19909); test: micro-ring resonator; 200 ug/ml neutravidin, 0.05 uM ProG-TGT and 50 ug/ml Ecad-Fc flowed successively over a polymer-passivated surface presenting biotin; ProG-TGT held through biotin:neutravidin; film thickness read out
[2] = target: Ecad-Fc (recombinant human epithelial cadherin fused with IgG-Fc)

Row | surface density of adhered DLD-1 cells on the ProG-TGT (43 pN) surface with Ecad-Fc (control surface without Ecad-Fc: 8/mm^2) [2] | Substance | film thickness increase [1] | stoichiometry N (Ecad-Fc per ProG-TGT (molar ratio)) [1]
1 | – | Ecad-Fc (recombinant human epithelial cadherin fused with IgG-Fc) (Fc fusion) | 237 pm | 0.87
2 | 386 /mm^2 | E-cadherin on DLD-1 cells (from UniProt P12830 155-882) (receptor) | – | –
